Data reported in patent US20110318377.

What was measured:
[1] = biological target: T1, Tat ARM peptide (amino acids 45-58) K51A
T1 chain: ISYGRKARRQRRRP

[2] = biological target: T2, Tat ARM peptide (amino acids 45-58) K50A
T2 chain: ISYGRAKRRQRRRP

[3] = biological target: T3, Tat ARM peptide carrying an acetyl group at position 50
T3 chain: ISYGRKKRRQRRRP

[4] = biological target: T4, Tat ARM peptide (amino acids 45-58) K50, 51AA
T4 chain: ISYGRAARRQRRRP

[5] = biological target: full-length synthetic Tat protein (72 amino acids), unmodified
[6] = biological target: T5, unmodified Tat ARM peptide (amino acids 45-58)
T5 chain: ISYGRKKRRQRRRP

[7] = biological target: histones purified from calf thymus
[8] = biological target: T6, Tat ARM peptide (amino acids 45-58) monomethylated at K51
T6 chain: ISYGRKKRRQRRRP

B1: recombinant Set9 (Upstate) (protein)
chain: MDSDDEMVEEAVEGHLDDDGLPHGFCTVTYSSTDRFEGNFVHGEKNGRGKFFFFDGSTLEGYYVDDALQGQGVYTYEDGGVLQGTYVDGELNGPAQEYDTDGRLIFKGQYKDNIRHGVCWIYYPDGGSLVGEVNEDGEMTGEKIAYVYPDERTALYGKFIDGEMIEGKLATLMSTEEGRPHFELMPGNSVYHFDKSTSSCISTNALLPDPYESERVYVAESLISSAGEGLFSKVAVGPNTVMSFYNGVRITHQEVDSRDWALNGNTLSLDEETVIDVPEPYNHVSKYCASLGHKANHSFTPNCIYDMFVHPRFGPIKCIRTLRAVEADEELTVAYGYDHSPPGKSGPEAPEWYQVELKAFQATQQK
For B1, the “in vitro methylation with radiolabeled SAM; MALDI-TOF” value (“in vitro methylation … MALDI-TOF” below) [1] was “Methylation by Set9 was abrogated when K51 or both lysines were mutated”, the “in vitro methylation … MALDI-TOF” value [2] was “mutation of K50 alone had no effect” and the “in vitro methylation … MALDI-TOF” value [3] was “No methylation signal was observed”. For the same protein, the “in vitro methylation with radiolabeled SAM” value [4] was “Methylation by Set9 was abrogated when K51 or both lysines were mutated”, the “in vitro methylation with radiolabeled SAM, autoradiography” value (from here on “in vitro methylation … autoradiography”) [5] was “The Tat protein was methylated in response to increasing amounts of Set9 enzyme” and the “MALDI-TOF mass shift after methylation reaction” value [6] was “a shift of 14 Da was detected in the methylated ARM peptide, corresponding to the addition of a single methyl group”. For the same protein, the “radioactive in vitro methylation of short Tat peptides” value [6] was “Methylation was observed with one peptide (45-58 amino acids) corresponding to the arginine-rich motif (ARM) of Tat”, the “in vitro methylation … autoradiography” value [7] was “Set9 also methylated purified histones, predominantly histone H3, a known substrate of Set9” and the “in vitro methylation … autoradiography” value (recombinant GST-IκBα) was “methylation by Set9 was not observed with another recombinant protein, GST-IκBα”.

B2: recombinant GST-p300 HAT (protein)
chain: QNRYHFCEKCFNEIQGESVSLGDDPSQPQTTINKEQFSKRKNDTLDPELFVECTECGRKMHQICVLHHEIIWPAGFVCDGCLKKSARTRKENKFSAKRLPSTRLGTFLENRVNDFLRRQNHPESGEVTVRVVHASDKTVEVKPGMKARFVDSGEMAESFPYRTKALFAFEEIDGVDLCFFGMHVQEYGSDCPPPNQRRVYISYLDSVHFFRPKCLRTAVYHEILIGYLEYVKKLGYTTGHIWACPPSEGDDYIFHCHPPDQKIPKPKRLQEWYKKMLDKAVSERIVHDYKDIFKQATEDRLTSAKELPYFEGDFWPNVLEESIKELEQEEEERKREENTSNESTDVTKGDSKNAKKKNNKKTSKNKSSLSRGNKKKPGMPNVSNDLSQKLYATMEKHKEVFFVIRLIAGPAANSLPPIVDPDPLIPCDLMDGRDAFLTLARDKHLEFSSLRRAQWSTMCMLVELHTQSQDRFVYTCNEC
With B2 the “in vitro acetylation with 14C-AcCoA, autoradiography” value [8] was “Acetylation by p300 occurred regardless of the methylation status of K51” and the “in vitro acetylation with 14C-AcCoA, autoradiography” value [6] was “Acetylation by p300 occurred regardless of the methylation status of K51”.
